Starred links: 1 amine or outer side, 2 acyl side, 3 side chain; linkers in the order of their positions; H or OH if unused. Non-standard residues stand in square brackets, D forms with d. No end group written: not given here. *: point of attachment. dBip = N[C@H](Cc1ccc(-c2ccccc2)cc1)C(=O)O; Oic = O=C(O)[C@@H]1C[C@@H]2CCCC[C@@H]2N1; Phe(4-Cl) = N[C@@H](Cc1ccc(Cl)cc1)C(=O)O; dPhe(4-Cl) = N[C@H](Cc1ccc(Cl)cc1)C(=O)O; Phe(4-I) = N[C@@H](Cc1ccc(I)cc1)C(=O)O; γGlu = O=C(O)[C@H](CCC(=O)[*:2])N[*:1]; d1Nal = N[C@H](Cc1cccc2ccccc12)C(=O)O; NMeR = CN[C@@H](CCCNC(=N)N)C(=O)O; Tridecanoyl = CCCCCCCCCCCCC(=O)*; hArg = N=C(N)NCCCC[C@H](N)C(=O)O; Cha = N[C@@H](CC1CCCCC1)C(=O)O; code O = not defined here; Nle = CCCC[C@H](N)C(=O)O; Orn = NCCC[C@H](N)C(=O)O; AEEA = NCCOCCOCC(=O)O; BLeu = β-leucine

One assay concerns the target T1, human APJ receptor (human, UniProt P35414 1-380).
T1 sequence (looked up): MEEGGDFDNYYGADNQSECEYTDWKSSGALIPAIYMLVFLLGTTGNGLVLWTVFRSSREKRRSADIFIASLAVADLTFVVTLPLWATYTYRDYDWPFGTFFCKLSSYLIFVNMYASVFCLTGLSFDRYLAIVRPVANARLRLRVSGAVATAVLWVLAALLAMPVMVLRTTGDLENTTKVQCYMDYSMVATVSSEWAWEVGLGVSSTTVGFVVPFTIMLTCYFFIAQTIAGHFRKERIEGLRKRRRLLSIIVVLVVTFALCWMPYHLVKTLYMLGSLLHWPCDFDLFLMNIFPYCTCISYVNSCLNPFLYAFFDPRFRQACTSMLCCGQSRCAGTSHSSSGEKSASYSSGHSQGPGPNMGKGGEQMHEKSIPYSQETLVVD
Nature of the assay: cell-based or functional assay.

Another assay concerns the target T2, rat APJ receptor (rat, UniProt Q9JHG3 1-377).
T2 sequence (looked up): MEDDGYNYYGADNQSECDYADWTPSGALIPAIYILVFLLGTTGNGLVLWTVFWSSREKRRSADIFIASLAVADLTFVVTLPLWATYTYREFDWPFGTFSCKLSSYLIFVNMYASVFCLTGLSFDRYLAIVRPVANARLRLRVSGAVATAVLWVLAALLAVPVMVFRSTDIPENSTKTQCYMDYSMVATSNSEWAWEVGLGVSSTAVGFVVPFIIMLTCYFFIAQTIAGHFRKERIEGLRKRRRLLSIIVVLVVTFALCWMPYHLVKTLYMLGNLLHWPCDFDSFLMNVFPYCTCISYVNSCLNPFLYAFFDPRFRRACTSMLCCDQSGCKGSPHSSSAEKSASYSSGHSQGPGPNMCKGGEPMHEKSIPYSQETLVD
Nature of the assay: cell-based or functional assay.

B1: apelin polypeptide SEQ ID NO: 670 (peptide)
peptide: [Orn]F[hArg][NMeR]Q[hArg]P[hArg][Cha]SHKG[Oic][Nle]P[Phe(4-Cl)]
In the case of B1, the “EC50 Human APJ Receptor” value with human APJ receptor was 0.131 nM. Besides, the “EC50 Rat APJ Receptor” value with rat APJ receptor worked out at 0.254 nM.

B2: apelin polypeptide SEQ ID NO: 22 (peptide)
peptide: Ac-[hArg][hArg]Q[dR]P[NMeR][Cha]SHKG[Oic][Phe(4-I)]P[dBip]-OH
SMILES: CC(=O)N[C@@H](CCCCNC(=N)N)C(=O)N[C@@H](CCCCNC(=N)N)C(=O)N[C@@H](CCC(N)=O)C(=O)N[C@H](CCCNC(=N)N)C(=O)N1CCC[C@H]1C(=O)N(C)[C@@H](CCCNC(=N)N)C(=O)N[C@@H](CC1CCCCC1)C(=O)N[C@@H](CO)C(=O)N[C@@H](Cc1c[nH]cn1)C(=O)N[C@@H](CCCCN)C(=O)NCC(=O)N1[C@H](C(=O)N[C@@H](Cc2ccc(I)cc2)C(=O)N2CCC[C@H]2C(=O)N[C@H](Cc2ccc(-c3ccccc3)cc2)C(=O)O)C[C@@H]2CCCC[C@@H]21
Regarding B2, the “EC50 Human APJ Receptor” value in the assay with human APJ receptor came to 1.52 nM. The “EC50 Rat APJ Receptor” value with rat APJ receptor came out at 4.52 nM.

B3: apelin polypeptide SEQ ID NO: 285 (peptide)
peptide: Tridecanoyl-[γGlu][AEEA][AEEA]Q[dR]P[NMeR][Cha]SHKG[Oic][Nle][d1Nal]-OH
SMILES: CCCCCCCCCCCCC(=O)N[C@@H](CCC(=O)NCCOCCOCC(=O)NCCOCCOCC(=O)N[C@@H](CCC(N)=O)C(=O)N[C@H](CCCNC(=N)N)C(=O)N1CCC[C@H]1C(=O)N(C)[C@@H](CCCNC(=N)N)C(=O)N[C@@H](CC1CCCCC1)C(=O)N[C@@H](CO)C(=O)N[C@@H](Cc1c[nH]cn1)C(=O)N[C@@H](CCCCN)C(=O)NCC(=O)N1[C@H](C(=O)N[C@@H](CCCC)C(=O)N[C@H](Cc2cccc3ccccc23)C(=O)O)C[C@@H]2CCCC[C@@H]21)C(=O)O
Turning to B3, the “EC50 Human APJ Receptor” value in the assay with human APJ receptor turned out to be 8.22 nM. In addition, the “EC50 Rat APJ Receptor” value with rat APJ receptor is 122 nM.

B4: apelin polypeptide SEQ ID NO: 673 (peptide)
peptide: [code O]F[hArg][NMeR]Q[NMeR]P[NMeR][Cha]SHKG[Oic][Nle]P[Phe(4-Cl)]
modifications: reading uncertain
As to B4, the “EC50 Human APJ Receptor” value with human APJ receptor is 1.34 nM. Moreover, the “EC50 Rat APJ Receptor” value in the assay with rat APJ receptor is 1.34 nM.

B5: apelin polypeptide SEQ ID NO: 281 (peptide)
peptide: Tridecanoyl-[γGlu][AEEA][AEEA][dQ][hArg]P[dR][BLeu]SHKG[Oic][Nle]P[dPhe(4-Cl)]-OH
As to B5, the “EC50 Human APJ Receptor” value with human APJ receptor is 14.8 nM. In addition, the “EC50 Rat APJ Receptor” value with rat APJ receptor is 87.3 nM.

B6: apelin polypeptide SEQ ID NO: 279 (peptide)
peptide: Tridecanoyl-[γGlu][AEEA][AEEA]Q[NMeR]P[dR][Cha]SHKG[Oic][Nle]P[Phe(4-Cl)]-OH
SMILES: CCCCCCCCCCCCC(=O)N[C@@H](CCC(=O)NCCOCCOCC(=O)NCCOCCOCC(=O)N[C@@H](CCC(N)=O)C(=O)N(C)[C@@H](CCCNC(=N)N)C(=O)N1CCC[C@H]1C(=O)N[C@H](CCCNC(=N)N)C(=O)N[C@@H](CC1CCCCC1)C(=O)N[C@@H](CO)C(=O)N[C@@H](Cc1c[nH]cn1)C(=O)N[C@@H](CCCCN)C(=O)NCC(=O)N1[C@H](C(=O)N[C@@H](CCCC)C(=O)N2CCC[C@H]2C(=O)N[C@@H](Cc2ccc(Cl)cc2)C(=O)O)C[C@@H]2CCCC[C@@H]21)C(=O)O
On to B6, for which, in the assay with human APJ receptor, the “EC50 Human APJ Receptor” value is 3.29 nM. In addition, in the assay with rat APJ receptor, the “EC50 Rat APJ Receptor” value worked out at 19.3 nM.

B7: apelin polypeptide SEQ ID NO: 672 (peptide)
peptide: [Orn]F[hArg][hArg]Q[NMeR]P[NMeR][Cha]SHKG[Oic][Nle]P[Phe(4-Cl)]
Consider B7, for which the “EC50 Human APJ Receptor” value with human APJ receptor amounted to 0.445 nM. Also, the “EC50 Rat APJ Receptor” value with rat APJ receptor amounted to 0.845 nM.

B8: apelin polypeptide SEQ ID NO: 282 (peptide)
peptide: Tridecanoyl-[γGlu][AEEA][AEEA][dQ][hArg]P[dR][Cha]SHKG[Oic][Nle][Phe(4-Cl)]-OH
SMILES: CCCCCCCCCCCCC(=O)N[C@@H](CCC(=O)NCCOCCOCC(=O)NCCOCCOCC(=O)N[C@H](CCC(N)=O)C(=O)N[C@@H](CCCCNC(=N)N)C(=O)N1CCC[C@H]1C(=O)N[C@H](CCCNC(=N)N)C(=O)N[C@@H](CC1CCCCC1)C(=O)N[C@@H](CO)C(=O)N[C@@H](Cc1c[nH]cn1)C(=O)N[C@@H](CCCCN)C(=O)NCC(=O)N1[C@H](C(=O)N[C@@H](CCCC)C(=O)N[C@@H](Cc2ccc(Cl)cc2)C(=O)O)C[C@@H]2CCCC[C@@H]21)C(=O)O
As to B8, the “EC50 Human APJ Receptor” value in the assay with human APJ receptor was found to be 5.79 nM. Also, the “EC50 Rat APJ Receptor” value in the assay with rat APJ receptor was 13.3 nM.

B9: apelin polypeptide SEQ ID NO: 669 (peptide)
peptide: [Orn]F[NMeR][hArg]Q[hArg]P[hArg][Cha]SHKG[Oic][Nle]P[Phe(4-Cl)]
With B9, in the assay with human APJ receptor, the “EC50 Human APJ Receptor” value came out at 5.3 nM. Moreover, the “EC50 Rat APJ Receptor” value with rat APJ receptor turned out to be 5.59 nM.

B10: apelin polypeptide SEQ ID NO: 284 (peptide)
peptide: Tridecanoyl-[γGlu][AEEA][AEEA]Q[dR]P[NMeR][Cha]SHKG[Oic][Nle]P[dPhe(4-Cl)]-OH
SMILES: CCCCCCCCCCCCC(=O)N[C@@H](CCC(=O)NCCOCCOCC(=O)NCCOCCOCC(=O)N[C@@H](CCC(N)=O)C(=O)N[C@H](CCCNC(=N)N)C(=O)N1CCC[C@H]1C(=O)N(C)[C@@H](CCCNC(=N)N)C(=O)N[C@@H](CC1CCCCC1)C(=O)N[C@@H](CO)C(=O)N[C@@H](Cc1c[nH]cn1)C(=O)N[C@@H](CCCCN)C(=O)NCC(=O)N1[C@H](C(=O)N[C@@H](CCCC)C(=O)N2CCC[C@H]2C(=O)N[C@H](Cc2ccc(Cl)cc2)C(=O)O)C[C@@H]2CCCC[C@@H]21)C(=O)O
Turning to B10, the “EC50 Human APJ Receptor” value with human APJ receptor was above 4170 nM. Also, the “EC50 Rat APJ Receptor” value with rat APJ receptor is above 4170 nM.

B11: apelin polypeptide SEQ ID NO: 283 (peptide)
peptide: Tridecanoyl-[γGlu][AEEA][AEEA][dQ][hArg]P[dR][Cha]SHKG[Oic][Nle][dPhe(4-Cl)]-OH
SMILES: CCCCCCCCCCCCC(=O)N[C@@H](CCC(=O)NCCOCCOCC(=O)NCCOCCOCC(=O)N[C@H](CCC(N)=O)C(=O)N[C@@H](CCCCNC(=N)N)C(=O)N1CCC[C@H]1C(=O)N[C@H](CCCNC(=N)N)C(=O)N[C@@H](CC1CCCCC1)C(=O)N[C@@H](CO)C(=O)N[C@@H](Cc1c[nH]cn1)C(=O)N[C@@H](CCCCN)C(=O)NCC(=O)N1[C@H](C(=O)N[C@@H](CCCC)C(=O)N[C@H](Cc2ccc(Cl)cc2)C(=O)O)C[C@@H]2CCCC[C@@H]21)C(=O)O
As for B11, in the assay with human APJ receptor, the “EC50 Human APJ Receptor” value is 9.74 nM. The “EC50 Rat APJ Receptor” value with rat APJ receptor amounted to 15.6 nM.

B12: apelin polypeptide SEQ ID NO: 280 (peptide)
peptide: Tridecanoyl-[γGlu][AEEA][AEEA][dQ][NMeR]P[dR][Cha]SHKG[Oic][Nle]P[Phe(4-Cl)]-OH
SMILES: CCCCCCCCCCCCC(=O)N[C@@H](CCC(=O)NCCOCCOCC(=O)NCCOCCOCC(=O)N[C@H](CCC(N)=O)C(=O)N(C)[C@@H](CCCNC(=N)N)C(=O)N1CCC[C@H]1C(=O)N[C@H](CCCNC(=N)N)C(=O)N[C@@H](CC1CCCCC1)C(=O)N[C@@H](CO)C(=O)N[C@@H](Cc1c[nH]cn1)C(=O)N[C@@H](CCCCN)C(=O)NCC(=O)N1[C@H](C(=O)N[C@@H](CCCC)C(=O)N2CCC[C@H]2C(=O)N[C@@H](Cc2ccc(Cl)cc2)C(=O)O)C[C@@H]2CCCC[C@@H]21)C(=O)O
B12: the “EC50 Human APJ Receptor” value in the assay with human APJ receptor came out at 2.04 nM. Besides, the “EC50 Rat APJ Receptor” value with rat APJ receptor amounted to 4.47 nM.

B13: apelin polypeptide SEQ ID NO: 671 (peptide)
peptide: [Orn]F[hArg][hArg]Q[NMeR]P[hArg][Cha]SHKG[Oic][Nle]P[Phe(4-Cl)]
For the molecule B13, the “EC50 Human APJ Receptor” value with human APJ receptor is 0.162 nM. In addition, the “EC50 Rat APJ Receptor” value in the assay with rat APJ receptor was determined as 0.387 nM.

Source of the values: patent publication US10941182 (Amgen, dated 2021).
